Results published in patent publication US20110105397A1, “METHOD FOR TREATING HEART FAILURE WITH STRESSCOPIN-LIKE PEPTIDES” (priority 2009, published 2011).
Read-outs that look alike come from different tables or passages of the source. Where no end group is shown, it is not given here.

T1: human corticotrophin releasing hormone receptor type 2 (CRHR2) (human, UniProt Q13324 1-411)
T1 sequence (looked up): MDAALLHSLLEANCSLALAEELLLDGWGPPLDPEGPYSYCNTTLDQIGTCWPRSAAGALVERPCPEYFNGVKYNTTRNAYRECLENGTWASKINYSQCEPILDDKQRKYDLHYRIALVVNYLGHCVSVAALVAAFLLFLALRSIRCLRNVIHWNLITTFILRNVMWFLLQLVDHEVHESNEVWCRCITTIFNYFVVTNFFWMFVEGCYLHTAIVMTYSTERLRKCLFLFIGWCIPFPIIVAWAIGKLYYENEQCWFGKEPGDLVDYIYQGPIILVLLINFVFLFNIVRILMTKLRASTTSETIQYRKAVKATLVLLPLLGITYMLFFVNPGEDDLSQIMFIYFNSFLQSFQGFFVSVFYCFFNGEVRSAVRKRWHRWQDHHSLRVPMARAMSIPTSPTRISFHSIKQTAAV

T2: human corticotrophin releasing hormone receptor type 1 (CRHR1) (human, UniProt P34998 24-415)
T2 sequence (looked up): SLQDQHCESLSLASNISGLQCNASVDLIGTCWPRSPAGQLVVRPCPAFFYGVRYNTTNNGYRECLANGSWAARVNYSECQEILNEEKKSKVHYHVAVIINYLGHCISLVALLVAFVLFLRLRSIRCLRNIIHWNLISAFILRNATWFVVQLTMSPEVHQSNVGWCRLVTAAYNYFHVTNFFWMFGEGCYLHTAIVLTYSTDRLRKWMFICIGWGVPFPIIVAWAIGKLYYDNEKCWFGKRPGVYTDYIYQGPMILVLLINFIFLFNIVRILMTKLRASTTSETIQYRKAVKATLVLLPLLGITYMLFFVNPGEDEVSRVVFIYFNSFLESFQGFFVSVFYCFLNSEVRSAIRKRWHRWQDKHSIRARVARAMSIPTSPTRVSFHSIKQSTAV

T3: human corticotrophin releasing hormone receptor type 2 (CRHR2) (human) (UniProt Q13324)
T3 sequence (looked up): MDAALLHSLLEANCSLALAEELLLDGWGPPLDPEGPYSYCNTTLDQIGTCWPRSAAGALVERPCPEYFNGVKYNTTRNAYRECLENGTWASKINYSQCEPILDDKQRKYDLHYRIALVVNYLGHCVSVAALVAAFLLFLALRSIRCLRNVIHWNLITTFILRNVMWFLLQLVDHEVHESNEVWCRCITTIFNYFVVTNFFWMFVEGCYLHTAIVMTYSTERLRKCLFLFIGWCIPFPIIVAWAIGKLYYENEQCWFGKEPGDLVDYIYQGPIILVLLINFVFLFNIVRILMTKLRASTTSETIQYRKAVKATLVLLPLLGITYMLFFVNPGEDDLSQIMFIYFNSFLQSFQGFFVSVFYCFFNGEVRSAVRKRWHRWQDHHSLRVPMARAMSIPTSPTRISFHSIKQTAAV

T4: human corticotrophin releasing hormone receptor type 1 (CRHR1) (human), P34998
T4 chain: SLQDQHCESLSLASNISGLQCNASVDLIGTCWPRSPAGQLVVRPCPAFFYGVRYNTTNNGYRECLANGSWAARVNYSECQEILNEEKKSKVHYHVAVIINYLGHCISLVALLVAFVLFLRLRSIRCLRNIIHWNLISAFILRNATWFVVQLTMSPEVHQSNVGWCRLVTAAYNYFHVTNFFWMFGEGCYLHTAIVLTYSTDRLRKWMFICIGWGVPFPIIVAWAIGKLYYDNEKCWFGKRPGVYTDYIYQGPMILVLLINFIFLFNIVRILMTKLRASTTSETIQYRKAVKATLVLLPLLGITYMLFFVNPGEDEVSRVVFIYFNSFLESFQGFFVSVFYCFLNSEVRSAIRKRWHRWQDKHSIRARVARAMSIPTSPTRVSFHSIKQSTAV


Key:
[1] = target: T1, human corticotrophin releasing hormone …; test: cell-based or functional assay
[2] = target: T1, human corticotrophin releasing hormone …; test: cell-based or functional assay; remark: listed apart in the source
[3] = target: T2, human corticotrophin releasing hormone …; test: cell-based or functional assay
[4] = target: T3, human corticotrophin releasing hormone receptor type 2 (CRHR2) (human); test: radioligand competition against [125I]-anti-sauvagine-30, membranes of SK-N-MC cells with human CRHR2
[5] = target: T3, human corticotrophin releasing hormone receptor type 2 (CRHR2) (human); test: cell-based or functional assay
[6] = target: T3, human corticotrophin releasing hormone receptor type 2 (CRHR2) (human); test: cell-based or functional assay; remark: listed apart in the source
[7] = target: T4, human corticotrophin releasing hormone …; test: radioligand competition against [125I]-(Tyr0)-sauvagine, CRHR1 assay, cell membranes; conditions: remark: other sources report otherwise

| fold decrease in potency against the amidated parent peptide, cAMP [1] [fold] | pA50 [2] | pA50 [3] | pKI [4] | pA50 [5] | pA50 [6] | pKI [7] | Binder |
| --- | --- | --- | --- | --- | --- | --- | --- |
| ~200 | 7.1 -log10(M) |  |  |  |  |  | TKFTLSLDVPTNIMNLLFNIAKAKNLRAQAAANAHLMAQI-OH [non-amidated h-SCP] |
|  |  | 9.19 -log10(M) | 8.51 -log10(M) | 9.08 -log10(M) |  |  | DDPPLSIDLTFHLLRTLLELARTQSQRERAEQNRIIFDSV-NH2 [r-UCN1] |
|  |  | < 5 -log10(M) | 6.49 -log10(M) |  | 9.26 -log10(M) | 4.96 -log10(M) | FTLSLDVPTNIMNLLFNIAKAKNLRAQAAANAHLMAQI-NH2 [human urocortin III] |
